The target in the assay is full-length α-synuclein (UniProt P37840 1-140). Description: NMR; segment 1 (Seg-1).

B1: protein disulfide isomerase (enzyme)
chain: not shown
The Kd is the constant that tells how readily two partners part at equilibrium. Read a low Kd as higher affinity. In turn, B1 came in with a Kd of 750 µM.

These data come from PMC9363494 (2022).
